From US20220002389A1 (IMMUNO BIOLOGICAL LABORATORIES, published 2022)

B1: Bcell-1C10 (1C10 antibody of B cell origin) (antibody, human IgG1, kappa, V domains shown)
VH: EVQLVESGGGVVQPGRSLRVSCVASGFMFSNYAMHWVRQTAGKGLEWVAIISNDGSDKYYADSVQGRFTVSRDNSQNTLFLQMSGLRPEDSGLYYCARDLDQTIPDLTAPAFEVWGQGTMVTVSS
VL: DIVMTQSPLSLAVTPGEPASISCRSSQSLLHSDGNNYLDWYLQKPGQSPQLLIYLTSNRASGVPDRFSGSGSGTDFTLKISRVEAEDVGVYFCMQSLQTWTFGQGTKVEIKR
B2: CHO-1C10 (1C10 antibody produced in ExpiCHO-S cells) (antibody, human IgG1, kappa, V domains shown)
VH: B1 VH
VL: B1 VL
modifications: about 70.3% core fucose-added N-glycan

Target: HIV-1 BaL strain envelope protein (gp120) on BaL-infected CEM.NKR-CCR5 (NKR24) cells (HIV-1 BaL strain)
Experiment: cell-based or functional assay

Binder | IC50 (50% inhibitory concentration) of infection of TZM-bl cells by BaL virus, luciferase RLU; 'Dose at Y = 50' [µg/mL]
B1 | 0.097
B2 | 0.0781
